The target of assay [1] is T1, HU-3pE-beta-Amyloid (human).
T1 construct: also called the peptide
Nature of the assay: SPR (per Example 5); antigen peptide not given.

For assay [2], the target named is T2, human Aβ 3pE-28 peptide (human, pyroglutamate (pE) at the N-terminus, residue 3 of Aβ). Description: SPR; same value as in Table 5. (In SPR one partner is held on a chip, and binding of the other changes the refractive index at the surface.)
Assay [3] deals with T3, Scrambled 3pE-28 (human).
T3 construct: also called scrambled Aβ 3pE-28; Aβ 3pE-28 peptide with amino acids 3-9 scrambled
T3 peptide: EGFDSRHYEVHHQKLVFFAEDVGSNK
Nature of the assay: SPR; KD limit divided by the KD for human 3pE Aβ.

Assay [4] concerns the target human Aβ 1-28 peptide (human). Nature of the assay: SPR; KD limit divided by the KD for human 3pE Aβ.
Assay [5] has as its target T1, HU-3pE-beta-Amyloid. Nature of the assay: SPR; HU-3pE-beta-Amyloid 0.6 to 4.5 nM.
For assay [6], the target named is T2, human Aβ 3pE-28 peptide. Nature of the assay: SPR, antibody captured on anti-human or anti-mouse Ig chip, peptide injected, 1:1 fit; N=9.
Assay [7] concerns the target T4, mouse Aβ 3pE-28 peptide (mouse, pyroglutamate (pE) at the N-terminus, residue 3 of Aβ).
T4 construct: also called rodent Aβ3pE-28
T4 peptide: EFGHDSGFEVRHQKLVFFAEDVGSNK
Description: SPR; KD for this peptide divided by the KD for human 3pE Aβ.

Another assay addresses T5, cynomolgus FcRn (cynomolgus, UniProt Q8SPV9 24-297; Q8SPW0 21-119).
T5 construct: the construct is not described; also called FcRn (cyno)
Nature of the assay: FcRn binding affinity; method not described; average of 5-6 replicates.

For another assay, the target named is T6, human FcRn (human, UniProt P55899 24-297; P61769 21-119).
T6 construct: the construct is not described; also called FcRn (human)
T6 sequence (P55899 24-297 limits assumed, chain 1 of 2): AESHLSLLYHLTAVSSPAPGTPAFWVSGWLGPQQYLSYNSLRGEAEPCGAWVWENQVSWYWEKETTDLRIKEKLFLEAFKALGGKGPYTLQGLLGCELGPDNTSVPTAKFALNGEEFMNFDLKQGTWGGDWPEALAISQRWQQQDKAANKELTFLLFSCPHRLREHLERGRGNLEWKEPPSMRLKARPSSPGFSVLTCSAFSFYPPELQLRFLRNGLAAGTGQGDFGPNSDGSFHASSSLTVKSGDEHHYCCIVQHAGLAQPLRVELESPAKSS
T6 sequence (P61769 21-119 limits assumed, chain 2 of 2): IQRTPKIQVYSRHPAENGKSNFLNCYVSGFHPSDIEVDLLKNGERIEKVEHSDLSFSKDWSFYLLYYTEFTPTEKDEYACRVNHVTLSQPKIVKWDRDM
The assay is described as above.

Assay [8] addresses T4, mouse Aβ 3pE-28 peptide. Nature of the assay: SPR, antibody captured, peptide injected, 1:1 fit.
Assay [9] deals with T3, Scrambled 3pE-28. Nature of the assay: SPR; no binding up to the maximum 1.2 µM tested.
In assay [10] the target is human Aβ 1-28 peptide (human). Nature of the assay: SPR; no binding up to the maximum 1.2 µM tested.
human Aβ 1-28 peptide (human), sequence (peptide, as listed by the source): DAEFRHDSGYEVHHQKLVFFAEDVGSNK

As a reminder, the Kd is the concentration at which binding is half-saturated. Read a high Kd as a looser complex. Broadly, the koff is the rate constant with which the complex falls apart. Low readings indicate a long-lived complex, high ones a short-lived complex. By kon is commonly meant the second-order rate constant of association. A lower kon goes with slower complex formation.

T2 sequence (peptide, as listed by the source): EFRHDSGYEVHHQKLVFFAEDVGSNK
T5 sequence (Q8SPV9 24-297 limits assumed, chain 1 of 2): as the sequence (P55899 24-297 limits assumed, chain 1 of 2) above, with N39D, E44Q, G99S, S189G, S190N, L217M, S269T counted along it
T5 sequence (Q8SPW0 21-119 limits assumed, chain 2 of 2): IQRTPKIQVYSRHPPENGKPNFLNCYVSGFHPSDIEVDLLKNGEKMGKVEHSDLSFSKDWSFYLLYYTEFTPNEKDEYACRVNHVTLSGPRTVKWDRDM

B1: BAMB623 (antibody, human IgG1, kappa, V domains shown)
VH: QVQLVQSGAEVKKPGASVKVSCKASGHVFTSYDMYWVRQAPGQSLEWIGYIDSDNGDTSYNQKFKGKATMTVDTSTSTVYMELSSLRSEDTAVYYCAYYRYAMDYWGQGTLVTVSS
VL: DVVMTQSPLSLPVTLGQPASISCKSSQSLLDSRAKTYLTWLQQRPGQSPRRLIYLVSKLDSGVPDRFSGSGSGTDFTLKISRVEAEDVGVYYCWQGTHFPYTFGGGTKLEIKR
notes: HFA variant of BAMB31, human IgG1
The molecule B1 gave a Kd in the assay with HU-3pE-beta-Amyloid [1] of 0.0183 nM.

B2: BAMB630 (antibody, human IgG1, kappa, V domains shown)
VH: QVQLVQSGAEVKKPGASVKVSCKASGHVFTSYDMYWVKQAPGQSLEWIGYIDSDNGDTSYNQKFKGKVTLTVDTSTSTVYMELSSLRSEDTAVYYCAYYRYAMDYWGQGTLVTVSS
VL: DVVMTQSPLSLPVTLGQPASISCKSSQSLLDSRAKTYLTWLLQRPGQSPRRLIYLVSKLDSGVPDRFSGSGSGTDFTLKISRVEAEDVGVYYCWQGTHFPYTFGGGTKLEIKR
notes: as for B1
B2: the equilibrium dissociation constant (Kd) with HU-3pE-beta-Amyloid [1] turned out to be 0.0383 nM.

B3: BAMB613 (antibody, human IgG1, kappa, V domains shown)
VH: QVQLVQSGAEVKKPGASVKVSCKASGHVFTSYDMYWVRQAPGQGLEWIGYIDSDNGDTSYNQKFKGKVTLTVDTSTSTVYMELSSLRSEDTAVYYCAYYRYAMDYWGQGTLVTVSS
VL: DVVMTQSPLSLPVTLGQPASISCKSSQSLLDSRAKTYLTWLQQRPGQSPRRLIYLVSKLDSGVPDRFSGSGSGTDFTLKISRVEAEDVGVYYCWQGTHFPYTFGGGTKLEIKR
notes: as for B1
The molecule B3 registered a Kd in the assay with HU-3pE-beta-Amyloid [1] of 0.0182 nM.

B4: BAMB631 (antibody, human IgG1, kappa, V domains shown)
VH: QVQLVQSGAEVKKPGASVKVSCKASGHVFTSYDMYWVRQAPGQSLEWMGYIDSDNGDTSYNQKFKGRVTLTVDTSTSTVYMELSSLRSEDTAVYYCAYYRYAMDYWGQGTLVTVSS
VL: DVVMTQSPLSLPVTLGQPASISCKSSQSLLDSRAKTYLTWLLQRPGQSPRRLIYLVSKLDSGVPDRFSGSGSGTDFTLKISRVEAEDVGVYYCWQGTHFPYTFGGGTKLEIKR
notes: as for B1
Consider B4, for which, in the assay with HU-3pE-beta-Amyloid [1], binding was put at a Kd of 0.018 nM.

B5: BAMB614 (antibody, human IgG1, kappa, V domains shown)
VH: QVQLVQSGAEVKKPGASVKVSCKASGHVFTSYDMYWVRQAPGQGLEWIGYIDSDNGDTSYNQKFKGRVTLTVDTSTSTVYMELSSLRSEDTAVYYCAYYRYAMDYWGQGTLVTVSS
VL: DVVMTQSPLSLPVTLGQPASISCKSSQSLLDSRAKTYLTWLQQRPGQSPRRLIYLVSKLDSGVPDRFSGSGSGTDFTLKISRVEAEDVGVYYCWQGTHFPYTFGGGTKLEIKR
notes: as for B1
Take B5: the Kd in the assay with HU-3pE-beta-Amyloid [1] is 0.016 nM.

B6: BAMB611 (antibody, human IgG1, kappa, V domains shown)
VH: QVQLVQSGAEVKKPGASVKVSCKASGHVFTSYDMYWVRQAPGQGLEWMGYIDSDNGDTSYNQKFKGRVTMTVDTSTSTVYMELSSLRSEDTAVYYCAYYRYAMDYWGQGTLVTVSS
VL: DVVMTQSPLSLPVTLGQPASISCKSSQSLLDSNGKTYLTWFQQRPGQSPRRLIYLVSKLDSGVPDRFSGSGSGTDFTLKISRVEAEDVGVYYCWQGTHFPYTFGGGTKLEIKR
notes: Human framework adapted (HFA) variant of BAMB31, human IgG1
In the assay with HU-3pE-beta-Amyloid [1], B6 yielded an equilibrium dissociation constant (Kd) of 1.52 nM.

B7: BAMB612 (antibody, human IgG1, kappa, V domains shown)
VH: QVQLVQSGAEVKKPGASVKVSCKASGHVFTSYDMYWVRQSPGQGLEWIGYIDSDNGDTSYNQKFKGRVTLTVDTSTSTVYMELSSLRSEDTAVYYCAYYRYAMDYWGQGTLVTVSS
VL: DVVMTQSPLSLPVTLGQPASISCKSSQSLLDSRAKTYLTWLQQRPGQSPRRLIYLVSKLDSGVPDRFSGSGSGTDFTLKISRVEAEDVGVYYCWQGTHFPYTFGGGTKLEIKR
notes: as for B1
As for B7, the Kd with HU-3pE-beta-Amyloid [1] was 0.0117 nM.

B8: BAMB674 (antibody, human IgG1, kappa)
heavy: not shown
light: DVVMTQSPLSLPVTLGQPASISCKSSQSLLDSRAKTYLTWLQQRPGQSPRRLIYLVSKLDSGVPDRFSGSGSGTDFTLKISRVEAEDVGVYYCWQGTHFPYTFGGGTKLEIKRTVAAPSVFIFPPSDEQLKSGTASVVCLLNNFYPREAKVQWKVDNALQSGNSQESVTEQDSKDSTYSLSSTLTLSKADYEKHKVYACEVTHQGLSSPVTKSFNRGEC
notes: Lead HFA variant, wild type human IgG1, HCDR2 N55S; also called BAMAB674; BAMB31 HFA mAb, wild type IgG1
On to B8, for which the Kd is 0.0254 nM with human Aβ 3pE-28 peptide [2]; 0.0401 nM with HU-3pE-beta-Amyloid [5]; 0.0254 nM with human Aβ 3pE-28 peptide [6]; 268 nM with cynomolgus FcRn; 349 nM with human FcRn; 45.5 nM in the assay with mouse Aβ 3pE-28 peptide [8]. Also, the Kd with Scrambled 3pE-28 [9] and in the assay with human Aβ 1-28 peptide [10] was greater than 1200 nM each time. The “Fold Selectivity” value with Scrambled 3pE-28 [3] was greater than 47000 fold; with human Aβ 1-28 peptide [4], greater than 47000 fold; in the assay with mouse Aβ 3pE-28 peptide [7] it was 1790 fold. Besides, the off-rate constant (koff) with HU-3pE-beta-Amyloid [5] came to 0.000136 s⁻¹; in the assay with human Aβ 3pE-28 peptide [6] it was 8.32e-05 s⁻¹; with mouse Aβ 3pE-28 peptide [8] it was 0.000338 s⁻¹. For the same molecule, the results for the association rate constant (kon) in the assay with HU-3pE-beta-Amyloid [5], in the assay with human Aβ 3pE-28 peptide [6] and with mouse Aβ 3pE-28 peptide [8] were 3.39e+06 M⁻¹ s⁻¹, 3.27e+06 M⁻¹ s⁻¹ and 7400 M⁻¹ s⁻¹, respectively.

B9: BAMB700 (antibody, human IgG1, kappa)
heavy: not shown
light: DVVMTQSPLSLPVTLGQPASISCKSSQSLLDSRAKTYLTWLQQRPGQSPRRLIYLVSKLDSGVPDRFSGSGSGTDFTLKISRVEAEDVGVYYCWQGTHFPYTFGQGTKLEIKRTVAAPSVFIFPPSDEQLKSGTASVVCLLNNFYPREAKVQWKVDNALQSGNSQESVTEQDSKDSTYSLSSTLTLSKADYEKHKVYACEVTHQGLSSPVTKSFNRGEC
For the molecule B9, in the assay with HU-3pE-beta-Amyloid [5], binding was put at a Kd of 0.0342 nM, the koff was 9.86e-05 s⁻¹ and the kon was 2.88e+06 M⁻¹ s⁻¹.

B10: BAMB701 (antibody, human IgG1, kappa)
heavy: QVQLVQSGAEVKKPGASVKVSCKASGHVFTSYDMYWVRQAPGQGLEWIGYIDSDSGDTSYNQKFKGRVTLTVDTSTSTVYMELSSLRSEDTAVYYCAYYRYAMDYWGQGTLVTVSSASTKGPSVFPLAPSSKSTSGGTAALGCLVKDYFPEPVTVSWNSGALTSGVHTFPAVLQSSGLYSLSSVVTVPSSSLGTQTYICNVNHKPSNTKVDKKVEPKSCDKTHTCPPCPAPELLGGPSVFLFPPKPKDTLYITREPEVTCVVVDVSHEDPEVKFNWYVDGVEVHNAKTKPREEQYNSTYRVVSVLTVLHQDWLNGKEYKCKVSNKALPAPIEKTISKAKGQPREPQVYTLPPSREEMTKNQVSLTCLVKGFYPSDIAVEWESNGQPENNYKTTPPVLDSDGSFFLYSKLTVDKSRWQQGNVFSCSVMHEALHNHYTQKSLSLSPGK
light: DVVMTQSPLSLPVTLGQPASISCKSSQSLLDSRAKTYLTWLQQRPGQSPRRLIYLVSKLDSGVPDRFSGSGSGTDFTLKISRVEAEDVGVYYCWQGTHFPYTFGGGTKVEIKRTVAAPSVFIFPPSDEQLKSGTASVVCLLNNFYPREAKVQWKVDNALQSGNSQESVTEQDSKDSTYSLSSTLTLSKADYEKHKVYACEVTHQGLSSPVTKSFNRGEC
In the case of B10, in the assay with HU-3pE-beta-Amyloid [5], binding was put at a Kd of 0.0314 nM, the koff was found to be 9.47e-05 s⁻¹ and the kon amounted to 3.01e+06 M⁻¹ s⁻¹.

B11: BAMB246 (human IgG1 chimera) (antibody)
heavy: not shown
light: DVVMTQTPLTLSVTIGQPASISCKSSQSLLDSNGKTYLTWLLQRPGQSPKRLIYLVSKLDSGVPDRFTGSGAGTDFTLKIIRVEAEDLGVYYCWQGTHFPYTFGGGTKLEIKRTVAAPSVFIFPPSDEQLKSGTASVVCLLNNFYPREAKVQWKVDNALQSGNSQESVTEQDSKDSTYSLSSTLTLSKADYEKHKVYACEVTHQGLSSPVTKSFNRGEC
notes: Mouse variable regions on a human IgG1 constant region; also called human chimeric parent; huIgG1 chimera
For the molecule B11, the entries for the “Fold Selectivity” value with Scrambled 3pE-28 [3], in the assay with human Aβ 1-28 peptide [4] and with mouse Aβ 3pE-28 peptide [7] were greater than 95000 fold, greater than 95000 fold and 3140 fold, respectively. Moreover, the equilibrium dissociation constant (Kd) in the assay with human Aβ 3pE-28 peptide [6] is 0.0126 nM; with mouse Aβ 3pE-28 peptide [8], 39.6 nM; in the assay with HU-3pE-beta-Amyloid [1] it was 0.0139 nM; with Scrambled 3pE-28 [9], greater than 1200 nM; with human Aβ 1-28 peptide [10], greater than 1200 nM. Besides, the off-rate (koff) with human Aβ 3pE-28 peptide [6] turned out to be 4.42e-05 s⁻¹; with mouse Aβ 3pE-28 peptide [8] it was 0.000404 s⁻¹. The kon stood at 3.53e+06 M⁻¹ s⁻¹ with human Aβ 3pE-28 peptide [6] and 10200 M⁻¹ s⁻¹ in the assay with mouse Aβ 3pE-28 peptide [8].

(Values after patent publication US20220177560A1 (Janssen / Centocor, published 2022).)
